# Source: paper PMC4080450, “The pseudo GTPase CENP-M drives human kinetochore assembly” (eLife, 2014)
# B1: His-CENP-I^57–281 (domain or fragment, human, UniProt Q92674 57-281, looked up)
# chain: ADDQAEEDALQMAVGYFEKGPIKASQNKDKTLEKHLKTVENVAWKNGLASEEIDILLNIALSGKFGNAVNTRILKCMIPATVISEDSVVKAVSWLCVGKCSGSTKVLFYRWLVAMFDFIDRKEQINLLYGFFFASLQDDALCPYVCHLLYLLTKKENVKPFRVRKLLDLQAKMGMQPHLQALLSLYKFFAPALISVSLPVRKKIYFKNSENLWKTALLAVKQRNR
# notes: CENP-I residues 57-281; no methods paragraph tells how this fragment was made; also called N-terminal region of CENP-I; I^N; source: recombinant, expressed in a soluble form
# Target: T1, CENP-H/His-CENP-K complex (human, UniProt Q9H3R5 1-247; Q9BS16 1-269)
# T1 construct: human CENP-H, without any tag; human CENP-K; also called CENP-H/K complex; source: Tnao38 insect cells, co-expressed, purified; not shown: His6, N-terminal, kept
# Assay: SEC; analytical SEC co-elution (Superdex200 5/150 or Superose6 5/150), 4°C; proteins mixed in 50 µl, at least 2 hr on ice; SEC buffer with 150 mM NaCl
# Settings: both partners purified
# T1 sequence (Q9H3R5 whole entry, chain 1 of 2): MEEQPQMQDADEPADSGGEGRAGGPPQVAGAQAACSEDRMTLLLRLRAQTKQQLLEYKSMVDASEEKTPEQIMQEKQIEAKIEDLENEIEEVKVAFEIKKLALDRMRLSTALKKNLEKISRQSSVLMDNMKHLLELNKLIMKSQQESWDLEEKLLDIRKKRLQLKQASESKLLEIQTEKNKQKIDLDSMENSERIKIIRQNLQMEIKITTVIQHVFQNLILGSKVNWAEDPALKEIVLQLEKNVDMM
# T1 sequence (Q9BS16 whole entry, chain 2 of 2): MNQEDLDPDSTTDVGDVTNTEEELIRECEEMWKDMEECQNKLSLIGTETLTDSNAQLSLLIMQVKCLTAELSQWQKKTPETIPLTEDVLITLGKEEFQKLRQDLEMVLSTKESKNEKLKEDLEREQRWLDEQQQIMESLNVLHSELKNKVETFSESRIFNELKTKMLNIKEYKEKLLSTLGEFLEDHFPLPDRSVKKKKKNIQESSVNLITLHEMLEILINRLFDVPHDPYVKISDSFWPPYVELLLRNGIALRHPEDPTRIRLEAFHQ
binder,measurement,value
B1,binding result,binds
